Assay results from PMC4022583, “The C-Terminal Random Coil Region Tunes the Ca^2+-Binding Affinity of S100A4 through Conformational Activation” (PLoS ONE, 2014).

B1: NMIIA fragment MPT (Tyr-Arg1894-Lys1937) (peptide)
peptide: YRKLQRELEDATETADAMNREVSSLKNKLRRGDLPFVVPRRMARK
notes: extra N-terminal tyrosine, printed as 'Tyr-Arg1894-Lys1937'; non-muscle myosin IIA (NMIIA) heavy chain, residues Arg1894-Lys1937; also called MPT peptide; myosin IIA fragment; not shown: His10, N-terminal, cleaved; ubiquitin, N-terminal, cleaved
B2: S100A4 C-terminal deletion mutant (residues 1-88, Δ13) (domain or fragment)
chain: not shown
notes: also called Δ13 mutant; S100A4Δ13

How the values were obtained:
[1] = molecular target: T1, S100A4Δ13 (C-terminal deletion mutant, residues 1-88) (human, UniProt P26447 1-88); experiment: ITC; 75 µM S100A4Δ13 in the cell titrated with MPT at 25°C (298 K) in the presence of 1 mM CaCl2; conditions: both partners purified
T1 construct: human S100A4, residues 1-88 (F89-K101 deleted); also called Δ13 mutant; Δ13 S100A4
T1 sequence (P26447 1-88, stated change not applied): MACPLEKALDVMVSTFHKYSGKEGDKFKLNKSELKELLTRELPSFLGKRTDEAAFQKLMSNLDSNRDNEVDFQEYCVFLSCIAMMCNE

[2] = molecular target: the molecule itself; experiment: pulsed field gradient NMR diffusion; Ca2+-bound: same sample after addition of Ca2+ to 9 mM, 287 K; one and two components fitted for WT

| Binder | Kd [1] | stoichiometry N [2] |
| --- | --- | --- |
| B1 | 14.7 nM | – |
| B2 | – | 2 |
